This passage reports Km and kcat results from doi:10.1101/2025.05.23.655777v1.

Assay in all cases: purified protein
Substrate in series [1]: N[C@@H](CS)C(=O)O
Conditions: fixed 2-oxoglutarate (6 mM), HEPES pH 8.0, 50 µM PLP, 30 °C.

Substrate in series [2]: O=C(O)CCC(=O)C(=O)O
Conditions: HEPES pH 8.0, 50 µM PLP, 30 °C.

Substrate in series [3]: C[C@H](N)C(=O)O
Conditions: fixed 2-oxoglutarate (6 mM), HEPES pH 8.0, 50 µM PLP, 30 °C.

Substrate in series [4]: N[C@@H](CC(=O)O)C(=O)O
Particulars: fixed 2-oxoglutarate (6 mM), HEPES pH 8.0, 50 µM PLP, 30 °C.

B1: Ala-AT; alanine aminotransferase 1 (recombinant) (Arabidopsis thaliana) (protein)
chain: SASDSSSSLPVTLDTINPKVIKCEYAVRGEIVNIAQKLQEDLKTNKDAYPFDEIIYCNIGNPQSLGQQPITFFREVLALCSYTALLDESATHGLFSSDSIERAWKILDQIPGRATGAYSHSQGIKGLRDAIADGIEARDGFPADPNDIFMTDGASPGVHMMMQLLITSEKDGILCPIPQYPLYSASIALHGGTLVPYYLDEASGWGLEISELKKQLEDARSKGITVRALAVINPGNPTGQVLSEENQRDVVKFCKQEGLVLLADEVYQENVYVPDKKFHSFKKVARSMGYGEKDLALVSFQSVSKGYYGECGKRGGYMEVTGFTSDVREQIYKMASVNLCSNISGQILASLIMSPPKPGDDSYESYIAEKDGILSSLARRAKTLEEALNKLEGVTCNRAEGAMYLFPCLHLPQKAIAAAEAEKTAPDNFYCKRLLKATGIVVVPGSGFRQVPGTWHFRCTILPQEDKIPAIVDRLTAFHQSFMDEFRD
The Km is the substrate concentration at which the rate is half of its maximum. Usually kcat stands for the maximal rate divided by the concentration of active sites. In the case of B1, the Km in the series “purified protein [1]” came out at 0.77 ± 0.1 mM; in “purified protein [2]” (fixed alanine (9 mM)), 0.18 ± 0.01 mM; in the series “purified protein [3]”, 2.51 ± 0.18 mM. Also, the turnover number (kcat) in “purified protein [1]” was found to be 0.14 s⁻¹; in “purified protein [2]” (fixed alanine (9 mM)), 262.91 s⁻¹; in the series “purified protein [3]” it was 367.69 s⁻¹.

B2: Asp-AT; aspartate aminotransferase 1 (recombinant) (Arabidopsis thaliana) (protein)
chain: MSSWWKSVEPAPKDPILGVTEAFLADPSPEKVNVGVGAYRDDNGKPVVLECVREAEKRLAGSTFMEYLPMGGSAKMVDLTLKLAYGDNSEFIKDKRIAAVQTLSGTGACRLFADFQKRFSPGSQIYIPVPTWSNHHNIWKDAQVPQKTYHYYHPETKGLDFSALMDDVKNAPEGSFFLLHACAHNPTGVDPTEEQWREISQLFKAKKHFAFFDMAYQGFASGDPARDAKSIRIFLEDGHHIGISQSYAKNMGLYGQRVGCLSVLCEDPKQAVAVKSQLQQLARPMYSNPPLHGAQLVSTILEDPELKSLWLKEVKVMADRIIGMRTTLRESLEKLGSPLSWEHVTKQIGMFCYSGLTPEQVDRLTSEYHIYMTRNGRISMAGVTTGNVGYLANAIHEVTKSS
Take B2: the Km in the series “purified protein [1]” is 15.14 ± 0.64 mM; in the series “purified protein [4]”, 3.33 ± 0.06 mM; in “purified protein [2]” (fixed aspartate (12 mM)), 0.46 ± 0.02 mM. Also, the kcat in the series “purified protein [1]” is 0.81 s⁻¹; in the series “purified protein [4]” it was 232.26 s⁻¹; in the series “purified protein [2]” (fixed aspartate (12 mM)) it was 180.60 s⁻¹.
